Data published in patent US20240093158A1 (ARIZONA BOARD OF REGENTS ON BEHALF OF ARIZONA STATE …, published 2024).

Target: T1, CD16 on human natural killer (NK) cells (human, UniProt P08637 17-254)
T1 construct: whole, on cells
Assay: flow cytometry on human NK cells, BiKE-containing supernatant, PE anti-V5 detection

T1 sequence (P08637 17-254): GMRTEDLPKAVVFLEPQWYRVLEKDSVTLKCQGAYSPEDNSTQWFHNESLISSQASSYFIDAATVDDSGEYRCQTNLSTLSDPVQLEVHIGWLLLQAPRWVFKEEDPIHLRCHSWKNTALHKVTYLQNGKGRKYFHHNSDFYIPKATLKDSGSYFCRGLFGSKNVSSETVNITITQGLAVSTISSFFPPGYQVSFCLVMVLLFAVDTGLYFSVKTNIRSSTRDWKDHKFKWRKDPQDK

B1: Bi-specific Natural Killer and Neutrophil engager (BiKE), CD138-CD16, secreted from MYXV-BiKE-infected cells, with C-terminal V5 tag (bispecific antibody)
chain: DIQMTQSTSSLSASLGDRVTISCSASQGINNYLNWYQQKPDGTVELLIYYTSTLQSGVPSRFSGSGSGTDYSLTISNLEPEDIGTYYCQQYSKLPRTFGGGTKLEIKGGGGSGGGGSGGGGSSQVQLQQSGSELMMPGASVKISCKATGYTFSNYWIEWVKQRPGHGLEWIGEILPGTGRTIYNEKFKGKATFTADISSNTVQMQLSSLTSEDSAVYYCARRDYYGNFYYAMDYWGQGTSVTVSSGGGGSGGGGSQVTLKESGPGILQPSQTLSLTCSFSGFSLRTSGMGVGWIRQPSGKGLEWLAHIWWDDDKRYNPALKSRLTISKDTSSNQVFLKIASVDTADTATYYCAQINPAWFAYWGQGTLVTVSAGGGGSGGGGSGGGGSDTVLTQSPASLAVSLGQRATISCKASQSVDFDGDSFMNWYQQKPGQPPKLLIYTTSNLESGIPARFSASGSGTDFTLNIHPVEEEDTATYYCQQSNEDPYTFGGGTKLEIKGKPIPNPLLGLDST
notes: Tested as secreted protein in supernatants of MYXV-BiKE-infected RK13 or Vero cells and detected through its V5 tag; Concentration was not determined; also called huBiKE; CD138-CD16 BiKE
B1: binds.
